{"source": "patent US12612465B2", "about": "“Formulations comprising PCSK9 specific monoclonal antibodies” (Amgen Inc., priority 2012, dated 2026)", "molecules": {"B1": {"name": "21B12: human anti-PCSK9 monoclonal antibody, light/heavy variable region SEQ ID NO 23/49 (antibody, listed as Homo sapiens, V domains shown)", "VH": "QVQLVQSGAEVKKPGASVKVSCKASGYTLTSYGISWVRQAPGQGLEWMGWVSFYNGNTNYAQKLQGRGTMTTDPSTSTAYMELRSLRSDDTAVYYCARGYGMDVWGQGTTVTVSS", "VL": "QSALTQPASVSGSPGQSITISCTGTSSDVGGYNSVSWYQQHPGKAPKLMIYEVSNRPSGVSNRFSGSKSGNTASLTISGLQAEDEADYYCNSYTSTSMVFGGGTKLTVL"}}, "key": {"PCSK9 [1]": {"target": "T1, PCSK9 (Homo sapiens, UniProt Q8NBP7)", "T1 construct": "endogenous in cells; host or cells: human subjects, in vivo", "T1 sequence (Q8NBP7 153-692)": "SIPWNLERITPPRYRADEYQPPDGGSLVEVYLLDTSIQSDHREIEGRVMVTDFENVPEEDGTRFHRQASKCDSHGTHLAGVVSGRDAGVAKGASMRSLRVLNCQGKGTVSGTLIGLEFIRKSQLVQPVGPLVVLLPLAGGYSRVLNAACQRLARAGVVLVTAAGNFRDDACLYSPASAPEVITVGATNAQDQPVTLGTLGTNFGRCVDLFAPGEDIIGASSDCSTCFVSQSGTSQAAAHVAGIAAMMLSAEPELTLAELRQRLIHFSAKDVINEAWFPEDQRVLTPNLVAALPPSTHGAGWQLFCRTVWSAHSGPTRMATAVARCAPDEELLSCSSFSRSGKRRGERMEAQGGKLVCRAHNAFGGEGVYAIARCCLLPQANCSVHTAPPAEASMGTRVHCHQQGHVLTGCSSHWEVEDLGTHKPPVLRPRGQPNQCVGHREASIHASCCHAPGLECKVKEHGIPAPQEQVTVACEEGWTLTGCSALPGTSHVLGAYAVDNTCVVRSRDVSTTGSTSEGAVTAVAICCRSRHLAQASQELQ", "experiment": "12 week study in heterozygous familial hypercholesterolemia (Example 22)", "type": "in vivo", "details": "HeFH, preliminary", "protocol": "This study is a double-blind, randomized, stratified, placebo-controlled clinical trial evaluating the safety, tolerability, and efficacy of monocloncal antibody 21B12 in subjects having a diagnosis of HeFH. A total enrollment of 150 subjects is planned. […] Randomization will be stratified by screening LDL-C level (<130 mg/dL [3.4 mmol/L] vs ≥130 mg/dL) and ezetimibe use at baseline (yes vs no). Randomization should occur within 5-10 days of the screening LDL-C evaluation used to determine eligibility. Monoclonal antibody, 21B12, and placebo will be blinded. Study visits are at weeks 2, 4, 8, and 12. […] The end-of-study (EOS) visit and the last evaluation of lipids is at week 12.\nMales and females, ≥18 to ≤75 years of age, and with a diagnosis of heterozygous familial hypercholesterolemia by the diagnostic criteria of the Simon Broome Register Group (SBRG), are eligible for this study. For enrollment, subjects must be on an approved statin, with stable dose(s) for all allowed (eg, ezetimibe, bile-acid sequestering resin, stanols, or regulatory-approved and marketed niacin (eg, Niaspan or Niacor)) lipid-regulating drugs for at least\n4 weeks before LDL-C screening and, in the opinion of the investigator, not requiring uptitration. Fasting LDL-C must be ≥100 mg/dL (2.6 mmol/L) and fasting triglycerides ≤400 mg/dL (4.5 mmol/L) by central laboratory at screening."}, "PCSK9 [2]": {"target": "T1, PCSK9", "experiment": "Aggregate data of the studies of Examples 22-25", "type": "in vivo"}, "[3]": {"experiment": "Osmolality of 21B12 formulations", "type": "physicochemical", "source_text": "In certain embodiments, the pharmaceutical formulation is isotonic with an osmolality ranging from between about 250 to about 350 miliosmol/kg, e.g., about 250 mOsm/kg, about 260 mOsm/kg, about 270 mOsm/kg, about 280 mOsm/kg, about 290 mOsm/kg, about 300 mOsm/kg, about 310 mOsm/kg, about 320 mOsm/kg, about 330 mOsm/kg, about 340 mOsm/kg, or about 350 mOsm/kg, and including all values in between. As used herein, “osmolality” is the measure of the ratio of solutes to volume fluid. In other words, it is the number of molecules and ions (or molecules) per kilogram of a solution. Osmolality may be measured on an analytical instrument called an osmometer, such as Advanced Instruments 2020 Multi-sample Osmometer, Norwood, Mass. The Advanced Instruments 2020 Multi-sample Osmometer measures osmolality by using the Freezing Point Depression method. The higher the osmolytes in a solution, the temperature in which it will freeze drops. Osmolality may also be measured using any other methods and in any other units known in the art such as linear extrapolation."}, "[4]": {"details": "350 mg Q4W SC, end of dosing interval"}}}
{"molecule": "B1", "values": [{"measurement": "LS mean percent increase from baseline in HDL-C", "setting": "PCSK9 [1]; [4]", "value": 15.39, "unit": "%"}, {"measurement": "LS mean percent reduction from baseline in LDL-C", "setting": "PCSK9 [1]; [4]", "value": 38.46, "unit": "%"}, {"measurement": "LS mean percent reduction from baseline in Lp(a)", "setting": "PCSK9 [1]; [4]", "value": 21.69, "unit": "%"}, {"measurement": "LS mean percent reduction from baseline in VLDL-C", "setting": "PCSK9 [1]; [4]", "value": 17.16, "unit": "%"}, {"measurement": "LS mean percent reduction from baseline in non-HDL cholesterol", "setting": "PCSK9 [1]; [4]", "value": 36.16, "unit": "%"}, {"measurement": "LS mean percent reduction from baseline in total cholesterol", "setting": "PCSK9 [1]; [4]", "value": 24.82, "unit": "%"}, {"measurement": "LS mean percent reduction from baseline in triglycerides", "setting": "PCSK9 [1]; [4]", "value": 17.24, "unit": "%"}, {"measurement": "LS mean percent increase from baseline in HDL-C", "setting": "PCSK9 [1]; 420 mg Q4W SC", "value": 6.77, "unit": "%"}, {"measurement": "LS mean percent reduction from baseline in LDL-C", "setting": "PCSK9 [1]; 420 mg Q4W SC", "value": 45.68, "unit": "%"}, {"measurement": "LS mean percent reduction from baseline in Lp(a)", "setting": "PCSK9 [1]; 420 mg Q4W SC", "value": 28.23, "unit": "%"}, {"measurement": "LS mean percent reduction from baseline in VLDL-C", "setting": "PCSK9 [1]; 420 mg Q4W SC", "value": 18.49, "unit": "%"}, {"measurement": "LS mean percent reduction from baseline in non-HDL cholesterol", "setting": "PCSK9 [1]; 420 mg Q4W SC", "value": 41.81, "unit": "%"}, {"measurement": "LS mean percent reduction from baseline in total cholesterol", "setting": "PCSK9 [1]; 420 mg Q4W SC", "value": 29.45, "unit": "%"}, {"measurement": "LS mean percent reduction from baseline in triglycerides", "setting": "PCSK9 [1]; 420 mg Q4W SC", "value": 4.56, "unit": "%"}, {"measurement": "reduction from baseline in LDL-C at week 12", "setting": "PCSK9 [2]; 140 mg Q2W", "value": "~60", "unit": "%"}, {"measurement": "reduction from baseline in LDL-C at week 12", "setting": "PCSK9 [2]; 420 mg Q4W", "value": "~56", "unit": "%"}, {"measurement": "dose dependent reduction from baseline in ApoB", "setting": "PCSK9 [2]; p values<0.001", "value": "36-53%"}, {"measurement": "dose dependent reduction from baseline in non-HDL-C", "setting": "PCSK9 [2]; p values<0.001", "value": "36-53%"}, {"measurement": "dose dependent reduction from baseline in total cholesterol", "setting": "PCSK9 [2]; p values<0.001", "value": "25-37%"}, {"measurement": "Osmolality", "setting": "[3]; 73 mg/mL, 10 mM Na acetate, pH 5.2 +3% proline", "value": 253, "unit": "mOsmol/kg"}, {"measurement": "Osmolality", "setting": "[3]; 76 mg/mL, 10 mM Na acetate, pH 5.2", "value": 53, "unit": "mOsmol/kg"}, {"measurement": "Osmolality", "setting": "[3]; 116 mg/mL, 10 mM sodium acetate, pH 4.8, 50 mM methionine + 2% benzyl alcohol", "value": 329, "unit": "mOsmol/kg"}, {"measurement": "Osmolality", "setting": "[3]; 116 mg/mL, 10 mM sodium acetate, pH 4.8, 150 mM arginine", "value": 241, "unit": "mOsmol/kg"}, {"measurement": "Osmolality", "setting": "[3]; 116 mg/mL, 10 mM sodium acetate, pH 4.8, 1.5% proline + 1% benzyl alcohol", "value": 277, "unit": "mOsmol/kg"}, {"measurement": "Osmolality", "setting": "[3]; 116 mg/mL, 10 mM sodium acetate, pH 4.8, 2% proline + 1% benzyl alcohol", "value": 313, "unit": "mOsmol/kg"}, {"measurement": "Osmolality", "setting": "[3]; 116 mg/mL, 10 mM sodium acetate, pH 4.8, no excipient", "value": 72, "unit": "mOsmol/kg"}, {"measurement": "Osmolality", "setting": "[3]; 117 mg/mL, 10 mM Na acetate, pH 4.5", "value": 59, "unit": "mOsmol/kg"}, {"measurement": "Osmolality", "setting": "[3]; 122 mg/mL, 10 mM Na acetate, pH 5.2 +3% proline", "value": 274, "unit": "mOsmol/kg"}, {"measurement": "Osmolality", "setting": "[3]; 130 mg/mL, 10 mM Na acetate, pH 5", "value": 59, "unit": "mOsmol/kg"}, {"measurement": "Osmolality", "setting": "[3]; 148 mg/mL, 10 mM Na acetate, pH 5.2 +3% proline", "value": 301, "unit": "mOsmol/kg"}, {"measurement": "Osmolality", "setting": "[3]; 154 mg/mL, 10 mM Na acetate, pH 5.2", "value": "Did not freeze"}, {"measurement": "Osmolality", "setting": "[3]; […], 10 mM Na acetate, pH 4", "value": 59, "unit": "mOsmol/kg"}, {"measurement": "Osmolality", "setting": "[3]; […], 10 mM Na acetate, pH 5.2 +150 mM NaCl", "value": 346, "unit": "mOsmol/kg"}, {"measurement": "Osmolality", "setting": "[3]; […], 10 mM Na acetate, pH 5.2 +3% proline", "value": 252, "unit": "mOsmol/kg"}, {"measurement": "Osmolality", "setting": "[3]; […], 10 mM Na acetate, pH 5.5", "value": 64, "unit": "mOsmol/kg"}, {"measurement": "Osmolality", "setting": "[3]; […], 10 mM Na acetate, pH 5.5 +150 Mm methionine and 3% benzyl alcohol", "value": 520, "unit": "mOsmol/kg"}]}
